For seven variants, percent of parent and response results are on record in PMC10348767 (2023).

B1: FLAG-hnRNPH2 WT, full length [human] / Kapβ2 in HEK293T cells [human (endogenous in HEK293T)] (parent complex)
chain 1: MMLSTEGREGFVVKVRGLPWSCSADEVMRFFSDCKIQNGTSGIRFIYTREGRPSGEAFVELESEEEVKLALKKDRETMGHRYVEVFKSNSVEMDWVLKHTGPNSPDTANDGFVRLRGLPFGCSKEEIVQFFSGLEIVPNGMTLPVDFQGRSTGEAFVQFASQEIAEKALKKHKERIGHRYIEIFKSSRAEVRTHYDPPRKLMAMQRPGPYDRPGAGRGYNSIGRGAGFERMRRGAYGGGYGGYDDYGGYNDGYGFGSDRFGRDLNYCFSGMSDHRYGDGGSSFQSTTGHCVHMRGLPYRATENDIYNFFSPLNPMRVHIEIGPDGRVTGEADVEFATHEDAVAAMAKDKANMQHRYVELFLNSTAGTSGGAYDHSYVELFLNSTAGASGGAYGSQMMGGMGLSNQSSYGGPASQQLSGGYGGGYGGQSSMSGYDQVLQENSSDYQSNLA
chain 2: MVWDRQTKMEYEWKPDEQGLQQILQLLKESQSPDTTIQRTVQQKLEQLNQYPDFNNYLIFVLTKLKSEDEPTRSLSGLILKNNVKAHFQNFPNGVTDFIKSECLNNIGDSSPLIRATVGILITTIASKGELQNWPDLLPKLCSLLDSEDYNTCEGAFGALQKICEDSAEILDSDVLDRPLNIMIPKFLQFFKHSSPKIRSHAVACVNQFIISRTQALMLHIDSFIENLFALAGDEEPEVRKNVCRALVMLLEVRMDRLLPHMHNIVEYMLQRTQDQDENVALEACEFWLTLAEQPICKDVLVRHLPKLIPVLVNGMKYSDIDIILLKGDVEEDETIPDSEQDIRPRFHRSRTVAQQHDEDGIEEEDDDDDEIDDDDTISDWNLRKCSAAALDVLANVYRDELLPHILPLLKELLFHHEWVVKESGILVLGAIAEGCMQGMIPYLPELIPHLIQCLSDKKALVRSITCWTLSRYAHWVVSQPPDTYLKPLMTELLKRILDSNKRVQEAACSAFATLEEEACTELVPYLAYILDTLVFAFSKYQHKNLLILYDAIGTLADSVGHHLNKPEYIQMLMPPLIQKWNMLKDEDKDLFPLLECLSSVATALQSGFLPYCEPVYQRCVNLVQKTLAQAMLNNAQPDQYEAPDKDFMIVALDLLSGLAEGLGGNIEQLVARSNILTLMYQCMQDKMPEVRQSSFALLGDLTKACFQHVKPCIADFMPILGTNLNPEFISVCNNATWAIGEISIQMGIEMQPYIPMVLHQLVEIINRPNTPKTLLENTAITIGRLGYVCPQEVAPMLQQFIRPWCTSLRNIRDNEEKDSAFRGICTMISVNPSGVIQDFIFFCDAVASWINPKDDLRDMFCKILHGFKNQVGDENWRRFSDQFPLPLKERLAAFYGV
B2: GST-hnRNPH2 PY-NLS WT (aa 169–225) [human] / karyopherin β2 (Kapβ2) [not stated] (parent complex)
chain 1: LKKHKERIGHRYIEIFKSSRAEVRTHYDPPRKLMAMQRPGPYDRPGAGRGYNSIGRG
chain 2: B1 chain 2

One assay covers variants of B1. In words: co-immunoprecipitation (anti-FLAG IP, immunoblot densitometry); HEK293T cells transfected with FLAG-hnRNPH2 constructs; parent: 100; read off a plot. On the technique in general: In western blotting, separated proteins are transferred to a membrane and probed.
Take chain 1 MMLSTEGREGFVVKVRGLPWSCSADEVMRFFSDCKIQNGTSGIRFIYTREGRPSGEAFVELESEEEVKLALKKDRETMGHRYVEVFKSNSVEMDWVLKHTGPNSPDTANDGFVRLRGLPFGCSKEEIVQFFSGLEIVPNGMTLPVDFQGRSTGEAFVQFASQEIAEKALKKHKERIGHRYIEIFKSSRAEVRTHYDPPRKLMAMQWPGPYDRPGAGRGYNSIGRGAGFERMRRGAYGGGYGGYDDYGGYNDGYGFGSDRFGRDLNYCFSGMSDHRYGDGGSSFQSTTGHCVHMRGLPYRATENDIYNFFSPLNPMRVHIEIGPDGRVTGEADVEFATHEDAVAAMAKDKANMQHRYVELFLNSTAGTSGGAYDHSYVELFLNSTAGASGGAYGSQMMGGMGLSNQSSYGGPASQQLSGGYGGGYGGQSSMSGYDQVLQENSSDYQSNLA [chain 1 R206W]: the percent of parent is roughly 48%.

For the variant chain 1 MMLSTEGREGFVVKVRGLPWSCSADEVMRFFSDCKIQNGTSGIRFIYTREGRPSGEAFVELESEEEVKLALKKDRETMGHRYVEVFKSNSVEMDWVLKHTGPNSPDTANDGFVRLRGLPFGCSKEEIVQFFSGLEIVPNGMTLPVDFQGRSTGEAFVQFASQEIAEKALKKHKERIGHRYIEIFKSSRAEVRTHYDPPRKLMAMQGPGPYDRPGAGRGYNSIGRGAGFERMRRGAYGGGYGGYDDYGGYNDGYGFGSDRFGRDLNYCFSGMSDHRYGDGGSSFQSTTGHCVHMRGLPYRATENDIYNFFSPLNPMRVHIEIGPDGRVTGEADVEFATHEDAVAAMAKDKANMQHRYVELFLNSTAGTSGGAYDHSYVELFLNSTAGASGGAYGSQMMGGMGLSNQSSYGGPASQQLSGGYGGGYGGQSSMSGYDQVLQENSSDYQSNLA [chain 1 R206G], the percent of parent is roughly 26%.

As to chain 1 MMLSTEGREGFVVKVRGLPWSCSADEVMRFFSDCKIQNGTSGIRFIYTREGRPSGEAFVELESEEEVKLALKKDRETMGHRYVEVFKSNSVEMDWVLKHTGPNSPDTANDGFVRLRGLPFGCSKEEIVQFFSGLEIVPNGMTLPVDFQGRSTGEAFVQFASQEIAEKALKKHKERIGHRYIEIFKSSRAEVRTHYDPPRKLMAMQQPGPYDRPGAGRGYNSIGRGAGFERMRRGAYGGGYGGYDDYGGYNDGYGFGSDRFGRDLNYCFSGMSDHRYGDGGSSFQSTTGHCVHMRGLPYRATENDIYNFFSPLNPMRVHIEIGPDGRVTGEADVEFATHEDAVAAMAKDKANMQHRYVELFLNSTAGTSGGAYDHSYVELFLNSTAGASGGAYGSQMMGGMGLSNQSSYGGPASQQLSGGYGGGYGGQSSMSGYDQVLQENSSDYQSNLA [chain 1 R206Q], the percent of parent was roughly 25%.

chain 1 MMLSTEGREGFVVKVRGLPWSCSADEVMRFFSDCKIQNGTSGIRFIYTREGRPSGEAFVELESEEEVKLALKKDRETMGHRYVEVFKSNSVEMDWVLKHTGPNSPDTANDGFVRLRGLPFGCSKEEIVQFFSGLEIVPNGMTLPVDFQGRSTGEAFVQFASQEIAEKALKKHKERIGHRYIEIFKSSRAEVRTHYDPPRKLMAMQRPGPCDRPGAGRGYNSIGRGAGFERMRRGAYGGGYGGYDDYGGYNDGYGFGSDRFGRDLNYCFSGMSDHRYGDGGSSFQSTTGHCVHMRGLPYRATENDIYNFFSPLNPMRVHIEIGPDGRVTGEADVEFATHEDAVAAMAKDKANMQHRYVELFLNSTAGTSGGAYDHSYVELFLNSTAGASGGAYGSQMMGGMGLSNQSSYGGPASQQLSGGYGGGYGGQSSMSGYDQVLQENSSDYQSNLA [chain 1 Y210C]: the percent of parent was roughly 25%.

chain 1 MMLSTEGREGFVVKVRGLPWSCSADEVMRFFSDCKIQNGTSGIRFIYTREGRPSGEAFVELESEEEVKLALKKDRETMGHRYVEVFKSNSVEMDWVLKHTGPNSPDTANDGFVRLRGLPFGCSKEEIVQFFSGLEIVPNGMTLPVDFQGRSTGEAFVQFASQEIAEKALKKHKERIGHRYIEIFKSSRAEVRTHYDPPRKLMAMQRPGLYDRPGAGRGYNSIGRGAGFERMRRGAYGGGYGGYDDYGGYNDGYGFGSDRFGRDLNYCFSGMSDHRYGDGGSSFQSTTGHCVHMRGLPYRATENDIYNFFSPLNPMRVHIEIGPDGRVTGEADVEFATHEDAVAAMAKDKANMQHRYVELFLNSTAGTSGGAYDHSYVELFLNSTAGASGGAYGSQMMGGMGLSNQSSYGGPASQQLSGGYGGGYGGQSSMSGYDQVLQENSSDYQSNLA [chain 1 P209L]: the percent of parent is roughly 20%.

A further assay covers variants of B2. In words: GST pulldown, Coomassie Blue band intensity; parent: 86; read off a plot.
For chain 1 LKKHKERIGHRYIEIFKSSRAEVRTHYDPPRKLMAMQWPGPYDRPGAGRGYNSIGRG, the response was roughly 42%.

Take chain 1 LKKHKERIGHRYIEIFKSSRAEVRTHYDPPRKLMAMQRPGLYDRPGAGRGYNSIGRG: the response is roughly 28%.
